The target of assay [1] is T1, Arabidopsis SERRATE core (SE core, residues 194-543), hexahistidine-tagged (Arabidopsis thaliana, UniProt Q9ZVD0 194-543).
T1 sequence (looked up): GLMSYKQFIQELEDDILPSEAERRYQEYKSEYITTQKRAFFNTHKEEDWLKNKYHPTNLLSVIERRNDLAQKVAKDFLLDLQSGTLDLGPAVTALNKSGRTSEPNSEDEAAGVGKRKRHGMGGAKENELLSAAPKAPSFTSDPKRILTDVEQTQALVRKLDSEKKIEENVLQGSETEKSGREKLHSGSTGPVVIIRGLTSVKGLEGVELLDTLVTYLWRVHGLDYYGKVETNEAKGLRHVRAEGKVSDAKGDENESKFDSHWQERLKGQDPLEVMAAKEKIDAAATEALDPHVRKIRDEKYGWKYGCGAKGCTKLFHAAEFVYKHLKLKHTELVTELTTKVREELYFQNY
The assay is described as follows: pull-down.

The target of assay [2] is T2, GST-fused SE Middle domain (SE-Mid, residues 248-470) (Arabidopsis thaliana, UniProt Q9ZVD0 248-470).
T2 sequence (looked up): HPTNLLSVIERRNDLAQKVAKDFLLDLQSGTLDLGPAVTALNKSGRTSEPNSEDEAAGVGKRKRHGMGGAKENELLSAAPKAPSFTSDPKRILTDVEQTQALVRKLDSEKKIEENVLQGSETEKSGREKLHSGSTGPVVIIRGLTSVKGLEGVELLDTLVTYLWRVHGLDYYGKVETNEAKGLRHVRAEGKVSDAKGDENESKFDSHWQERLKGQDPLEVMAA
Kind of assay: pull-down.

B1: GST-fused HYL1 RBD2 (residues 100-172) (domain or fragment, Arabidopsis thaliana, UniProt O04492 100-172, looked up)
chain: GLCKNLLQEYAQKMNYAIPLYQCQKVETLGRVTQFTCTVEIGGIKYTGAATRTKKDAEISAGRTALLAIQSDT
Take B1: the binding result in assay [1] is given as “binds”.

B2: Non-tagged HYL1 RBD2 (residues 100-172) (domain or fragment, Arabidopsis thaliana, UniProt O04492 100-172, looked up)
chain: B1 chain
For B2, the binding result in assay [2] was “binds”.

B3: GST-fused HYL1 RBD1+2 (residues 15-172) (domain or fragment, Arabidopsis thaliana, UniProt O04492 15-172, looked up)
chain: VFKSRLQEYAQKYKLPTPVYEIVKEGPSHKSLFQSTVILDGVRYNSLPGFFNRKAAEQSAAEVALRELAKSSELSQCVSQPVHETGLCKNLLQEYAQKMNYAIPLYQCQKVETLGRVTQFTCTVEIGGIKYTGAATRTKKDAEISAGRTALLAIQSDT
As for B3, in assay [1], the binding result is “binds”.

The values are drawn from publication PMC3177193 (Nucleic Acids Research, 2011).
